T1: Boi1 SH3 (BOI1_YEAST), P38041
T1 chain: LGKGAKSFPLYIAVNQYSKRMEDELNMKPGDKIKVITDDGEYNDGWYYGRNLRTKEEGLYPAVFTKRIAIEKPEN

T2: Boi2 SH3 (BOI2_YEAST), P39969
T2 chain: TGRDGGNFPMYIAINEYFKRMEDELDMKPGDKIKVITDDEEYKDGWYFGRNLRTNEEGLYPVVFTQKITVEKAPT

T3: Myo5 SH3 (MYO5_YEAST), Q04439
T3 chain: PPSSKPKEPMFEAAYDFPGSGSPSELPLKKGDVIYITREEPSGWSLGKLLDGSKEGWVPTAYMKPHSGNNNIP

T4: Rvs167 SH3 (RV167_YEAST), P39743
T4 chain: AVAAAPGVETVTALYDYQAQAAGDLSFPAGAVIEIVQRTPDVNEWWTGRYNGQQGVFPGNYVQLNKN

T5: Yfr024 SH3 (LSB3_YEAST), P43603
T5 chain: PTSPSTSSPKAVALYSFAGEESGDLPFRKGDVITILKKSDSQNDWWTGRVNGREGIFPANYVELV

T6: Yhr016c SH3 (YSC84_YEAST), P32793
T6 chain: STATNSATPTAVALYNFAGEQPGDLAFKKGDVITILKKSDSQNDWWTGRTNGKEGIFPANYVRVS


Key:
Test in all cases: SPOT array
[1] = biological target: T1, Boi1 SH3 (BOI1_YEAST), P38041
[2] = biological target: T2, Boi2 SH3 (BOI2_YEAST), P39969
[3] = biological target: T3, Myo5 SH3 (MYO5_YEAST), Q04439
[4] = biological target: T4, Rvs167 SH3 (RV167_YEAST), P39743
[5] = biological target: Sho1 SH3 (SHO1_YEAST), P40073
Sho1 SH3 (SHO1_YEAST), P40073, sequence (P40073 295-366): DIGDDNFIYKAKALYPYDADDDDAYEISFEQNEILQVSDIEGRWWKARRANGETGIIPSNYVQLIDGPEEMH

[6] = biological target: T5, Yfr024 SH3 (LSB3_YEAST), P43603
[7] = biological target: T6, Yhr016c SH3 (YSC84_YEAST), P32793

Binder	normalised SPOT signal, Boehringer light units (BLU); mean over the file's lines of this peptide [1]	normalised SPOT signal, Boehringer light units (BLU); mean over the file's lines of this peptide [2]	normalised SPOT signal, Boehringer light units (BLU); mean over the file's lines of this peptide [3]	normalised SPOT signal, Boehringer light units (BLU); mean over the file's lines of this peptide [4]	normalised SPOT signal, Boehringer light units (BLU); mean over the file's lines of this peptide [5]	normalised SPOT signal, Boehringer light units (BLU); mean over the file's lines of this peptide [6]	normalised SPOT signal, Boehringer light units (BLU); mean over the file's lines of this peptide [7]
FLLKKMFPAPPLPT [YDL172C 130-143]	235	27.9	23700	52.4	149	132	40.3
FQPQRTAPKPPISA [YNL298W 451-464]	4820	19.6	88300	148	39.8	379	21.1
FIKNKAKPLIPIEL [YJL201W 254-267]	700	10.9	656	952	410	146	72
FVFFKSLPDLPKPQ [YML104C 41-54]	129	8.6	860	179	35800	448	80.2
FLHSKKIPEVPQTD [YGR281W 89-102]	37.9	8.2	288	15.3	1190	15.3	25.6
FQYTKGRPLAPKGA [YGL009C 253-266]	59.6	14.9	235	22.3	66.9	190	42.6
FRPHRLAPSAPATK [YOL113W 305-318]	9160	26	1410	228	44.7	1010	109
FHDPKFIPNKPYRQ [YGR019W 335-348]	518	16.3	300	28.7	122	498	113
FNGDRLVPTLPTVS [YPR095C 191-204]	132	190	161	2290	40	2210	750
FHPEKLTPYTPMTG [YHR204W 260-273]	95.4	19.5	96.5	12.7	25.1	45.9	42
FSKKKEAPEDPKNL [YNL231C 5-18]	56.7	18.3	148	66.9	42.3	13.4	21.7
FGTAKILPEEPSNT [YDR490C 268-281]	35.5	7.7	153	23.2	183	0.1	30.3
FQDYRSSPWSPSRS [YLR169W 87-100]	33700	314	264	575	953	548	221
FSTKKSKPIRPFVF [YMR259C 335-348]	267	30.8	378	228	182	864	66.2
FKVYRWNPDEPSAK [YLL041C 36-49]	892	28.9	99	99.4	75.1	154	29.3
FLQDRVIPIFPHYP [YMR283C 55-68]	102	1.2	261	72.9	4.9	173	26.6

Source: paper PMC314469, “Protein Interaction Networks by Proteome Peptide Scanning” (PLoS Biology, 2004)
